Test results as given in article PMC5020499, “Crystal structures of archaeal 2-oxoacid:ferredoxin oxidoreductases from Sulfolobus tokodaii” (Scientific Reports, 2016).

How the values were obtained:
[1] = substrate: CC(=O)C(=O)O; experiment: purified protein; assay type: biochemical, Sulfurisphaera tokodaii; settings: 0.25 mM CoA, 2 mM methylviologen, 50 mM Tris-HCl pH 8.5, 80 °C
[2] = substrate: O=C(O)CCC(=O)C(=O)O; experiment: purified protein; assay type: biochemical, Sulfurisphaera tokodaii; settings: 0.25 mM CoA, 2 mM methylviologen, 50 mM Tris-HCl pH 8.5, 80 °C

| Protein | Km [1] | Vmax [1] | Km [2] | Vmax [2] |
| --- | --- | --- | --- | --- |
| StOFOR1 (Sulfurisphaera tokodaii str. 7) (protein, recombinant in E. coli C43(DE3), pET-17b-based pOFORAB, untagged; 70 kDa alpha and 34 kDa beta subunits; (ab)2 heterotetramer with TPP, Mg2+, [4Fe-4S]) chain 1: MRLSWVIGGAQGTGIDTAANIFGNAVASAGYYIYGNREYYSNIKGRHSYFSLTISDKRVRSNTQKIDILVSFDAETVFQHFYDVKDILIYNKAVETTKIDAVQSMEPELAERIKDFLTKQGYETTVKGALEYASKNNVTLIPVNYDEIAKKVADEMKVPLSVTERVKNIVGITISYKLLGLDVNYLIEAINSTFKQDLYRKMNELAVKDSYDIVESRYNLKPSSKERRRFWLDGNTAVAIGKIYGGVRFQSYYPITPASDESVYIEAHQDVLMEDPITGDKKKGTIVVVQAEDELAAINMAIGAALTGVRAATATSGPGFSLMVEGLGWAGMNEVPVVITYYIRGGPSTGLPTRTAQSDLIFPIFAGHGEFPKIVLASGDHAEAFKDAIWALNLAEKYQTPVIHLVEKTLANSYSTIPYEELELDKLKAERGKIVESGDISYKRFKFTEDGISPRAFLGKATMYYTGDEHNEEGHISEDVVNRTMMYEKRMKKLEVADKEIPEESRVKIYGDLNSRNLIITWGSPTGVLRDILEESNFDFTLLQIRMFSPFPKNLVSKLMEGRDKIITVEGNYLAQTSLLVKMYTGKDVTNSILKWNGRPFLRDELEEALIKVIKDGEKRVVLNGGI chain 2: MAAFKPQWNDWCPGCGNFGILNAEQQAIVELGVDTKNVVVVSGIGCSGKIPHFFRTPISGVHTLHGRAIAFATGIKLSNPDLVVIVNGGDGDLLGIGAGHFVAAGRRNVDMVVILHDNGVYGLTKGQASPTLKRGEKPKSLPRPNINDAVNPIALAISSGYTFVARGYAYDVKHLKELIKSAIKHKGLALIDVLQPCPTYNDINTKEWYDKRIYKLDTLPDWDPVVKKPEEVNEKIKRAIDKSLEWGDRIPIGIFYQNELVPSYEERIKANSPAYLDYTPAKQLIEKEGKLTTIIDPLLKEREVD | 320 ± 80 µM | 7.5 µmol/min/mg | 2100 ± 300 µM | 2.7 µmol/min/mg |
| StOFOR1 (Sulfurisphaera tokodaii str. 7; Q96Y68:K49I) (protein, recombinant in E. coli C43(DE3), pET-17b-based pOFORAB, untagged; 70 kDa alpha and 34 kDa beta subunits; (ab)2 heterotetramer with TPP, Mg2+, [4Fe-4S]) chain 1: MRLSWVIGGAQGTGIDTAANIFGNAVASAGYYIYGNREYYSNIKGRHSYFSLTISDKRVRSNTQKIDILVSFDAETVFQHFYDVKDILIYNKAVETTKIDAVQSMEPELAERIKDFLTKQGYETTVKGALEYASKNNVTLIPVNYDEIAKKVADEMKVPLSVTERVKNIVGITISYKLLGLDVNYLIEAINSTFKQDLYRKMNELAVKDSYDIVESRYNLKPSSKERRRFWLDGNTAVAIGKIYGGVRFQSYYPITPASDESVYIEAHQDVLMEDPITGDKKKGTIVVVQAEDELAAINMAIGAALTGVRAATATSGPGFSLMVEGLGWAGMNEVPVVITYYIRGGPSTGLPTRTAQSDLIFPIFAGHGEFPKIVLASGDHAEAFKDAIWALNLAEKYQTPVIHLVEKTLANSYSTIPYEELELDKLKAERGKIVESGDISYKRFKFTEDGISPRAFLGKATMYYTGDEHNEEGHISEDVVNRTMMYEKRMKKLEVADKEIPEESRVKIYGDLNSRNLIITWGSPTGVLRDILEESNFDFTLLQIRMFSPFPKNLVSKLMEGRDKIITVEGNYLAQTSLLVKMYTGKDVTNSILKWNGRPFLRDELEEALIKVIKDGEKRVVLNGGI chain 2: MAAFKPQWNDWCPGCGNFGILNAEQQAIVELGVDTKNVVVVSGIGCSGIIPHFFRTPISGVHTLHGRAIAFATGIKLSNPDLVVIVNGGDGDLLGIGAGHFVAAGRRNVDMVVILHDNGVYGLTKGQASPTLKRGEKPKSLPRPNINDAVNPIALAISSGYTFVARGYAYDVKHLKELIKSAIKHKGLALIDVLQPCPTYNDINTKEWYDKRIYKLDTLPDWDPVVKKPEEVNEKIKRAIDKSLEWGDRIPIGIFYQNELVPSYEERIKANSPAYLDYTPAKQLIEKEGKLTTIIDPLLKEREVD | 910 ± 120 µM | 2.1 µmol/min/mg |  |  |
| StOFOR1 (Sulfurisphaera tokodaii str. 7; Q96Y66:S41A) (protein, recombinant in E. coli C43(DE3), pET-17b-based pOFORAB, untagged; 70 kDa alpha and 34 kDa beta subunits; (ab)2 heterotetramer with TPP, Mg2+, [4Fe-4S]) chain 1: MRLSWVIGGAQGTGIDTAANIFGNAVASAGYYIYGNREYYANIKGRHSYFSLTISDKRVRSNTQKIDILVSFDAETVFQHFYDVKDILIYNKAVETTKIDAVQSMEPELAERIKDFLTKQGYETTVKGALEYASKNNVTLIPVNYDEIAKKVADEMKVPLSVTERVKNIVGITISYKLLGLDVNYLIEAINSTFKQDLYRKMNELAVKDSYDIVESRYNLKPSSKERRRFWLDGNTAVAIGKIYGGVRFQSYYPITPASDESVYIEAHQDVLMEDPITGDKKKGTIVVVQAEDELAAINMAIGAALTGVRAATATSGPGFSLMVEGLGWAGMNEVPVVITYYIRGGPSTGLPTRTAQSDLIFPIFAGHGEFPKIVLASGDHAEAFKDAIWALNLAEKYQTPVIHLVEKTLANSYSTIPYEELELDKLKAERGKIVESGDISYKRFKFTEDGISPRAFLGKATMYYTGDEHNEEGHISEDVVNRTMMYEKRMKKLEVADKEIPEESRVKIYGDLNSRNLIITWGSPTGVLRDILEESNFDFTLLQIRMFSPFPKNLVSKLMEGRDKIITVEGNYLAQTSLLVKMYTGKDVTNSILKWNGRPFLRDELEEALIKVIKDGEKRVVLNGGI chain 2: MAAFKPQWNDWCPGCGNFGILNAEQQAIVELGVDTKNVVVVSGIGCSGKIPHFFRTPISGVHTLHGRAIAFATGIKLSNPDLVVIVNGGDGDLLGIGAGHFVAAGRRNVDMVVILHDNGVYGLTKGQASPTLKRGEKPKSLPRPNINDAVNPIALAISSGYTFVARGYAYDVKHLKELIKSAIKHKGLALIDVLQPCPTYNDINTKEWYDKRIYKLDTLPDWDPVVKKPEEVNEKIKRAIDKSLEWGDRIPIGIFYQNELVPSYEERIKANSPAYLDYTPAKQLIEKEGKLTTIIDPLLKEREVD | 490 ± 90 µM | 2.2 µmol/min/mg | 3200 ± 400 µM | 1.1 µmol/min/mg |
| StOFOR1 (Sulfurisphaera tokodaii str. 7; Q96Y66:T349L) (protein, recombinant in E. coli C43(DE3), pET-17b-based pOFORAB, untagged; 70 kDa alpha and 34 kDa beta subunits; (ab)2 heterotetramer with TPP, Mg2+, [4Fe-4S]) chain 1: MRLSWVIGGAQGTGIDTAANIFGNAVASAGYYIYGNREYYSNIKGRHSYFSLTISDKRVRSNTQKIDILVSFDAETVFQHFYDVKDILIYNKAVETTKIDAVQSMEPELAERIKDFLTKQGYETTVKGALEYASKNNVTLIPVNYDEIAKKVADEMKVPLSVTERVKNIVGITISYKLLGLDVNYLIEAINSTFKQDLYRKMNELAVKDSYDIVESRYNLKPSSKERRRFWLDGNTAVAIGKIYGGVRFQSYYPITPASDESVYIEAHQDVLMEDPITGDKKKGTIVVVQAEDELAAINMAIGAALTGVRAATATSGPGFSLMVEGLGWAGMNEVPVVITYYIRGGPSLGLPTRTAQSDLIFPIFAGHGEFPKIVLASGDHAEAFKDAIWALNLAEKYQTPVIHLVEKTLANSYSTIPYEELELDKLKAERGKIVESGDISYKRFKFTEDGISPRAFLGKATMYYTGDEHNEEGHISEDVVNRTMMYEKRMKKLEVADKEIPEESRVKIYGDLNSRNLIITWGSPTGVLRDILEESNFDFTLLQIRMFSPFPKNLVSKLMEGRDKIITVEGNYLAQTSLLVKMYTGKDVTNSILKWNGRPFLRDELEEALIKVIKDGEKRVVLNGGI chain 2: MAAFKPQWNDWCPGCGNFGILNAEQQAIVELGVDTKNVVVVSGIGCSGKIPHFFRTPISGVHTLHGRAIAFATGIKLSNPDLVVIVNGGDGDLLGIGAGHFVAAGRRNVDMVVILHDNGVYGLTKGQASPTLKRGEKPKSLPRPNINDAVNPIALAISSGYTFVARGYAYDVKHLKELIKSAIKHKGLALIDVLQPCPTYNDINTKEWYDKRIYKLDTLPDWDPVVKKPEEVNEKIKRAIDKSLEWGDRIPIGIFYQNELVPSYEERIKANSPAYLDYTPAKQLIEKEGKLTTIIDPLLKEREVD | 510 ± 110 µM | 3.2 µmol/min/mg | 2300 ± 300 µM | 2 µmol/min/mg |
| StOFOR2 (Sulfurisphaera tokodaii str. 7) (protein, recombinant in E. coli C43(DE3), genes from S. tokodaii genomic DNA in pOFORAB (pET-17b based), untagged; (ab)2 heterotetramer with TPP, Mg2+, [4Fe-4S]) chain 1: MTRIVWMIGGAQGLGVDTSANIFGNAVAKAGYYLFGNREYYSNIKGRHSYFEVVISEKPIRSLSSYVNILASFDAETVFQHFTETKEYLIYNVEYENTTVDLVKSMEPEMAEQVKEALSKERLGFTIKDVLEYLKRRGVKVIGFNYTELIKKIADTFKVPMSVVERAKNMIAVGASYGLLGLKFDYLKDAISSTFKNELFIKFNTMAAELGYNSVPNVYKLQEYKIEKQRIQVDGNTISAMGKLAGGLRFQSYYPITPASDESVYIEANQNLDMIVEGNELRKGGVVVVQAEDELAAINMAVGAALTGVRSATATSGPGFSLMSEGISWAGMNEVPVVITYYMRGAPATGLPTRSGQADLKFALNVGHGEFPRIVIASGDHVEIFWDAIWALNLAEKYQTPVIHIIEKTLANAYSVFEEELITNRPYVIERGKIVKPTSDYFNRFEVTEDGISPRVFLGQASIFYTGDEHNEEGHITENSINRMKMYEKRNKKLETADKEIPEEQRVNIVGDADIVLLTWGSPKGAILDAMEELSKDGIKTMMVQVKMFNPYPKNLMKKILSGKSKIIAVENNYNAQGAEVLAEKTGIFATNYILKWTGRPITREEVIEGIKKILERDEKRVVLYGGA chain 2: MVERKPVFVDWCPGCGDFGILRAEEMAIRELGINPKSVVIVSGIGCSGKIPHFMNLPISGVHTLHGRSIAFATGIKLSNPSLEVIVNVGDGDGLGIGMGHFVHLGRRNIDIAVLVHNNGVYGLTKGQASPTLHRGEKTKSLPKPNIMDAVNPLAVALAAGYTFVARGYAYDVMHLKELIKKAILHKGSALVDILQPCPTYNDINTKEWYDKRVYKLDNVPGWDPVVRKEEEAQKKFEQAIMKSYEWGEKIPIGIFYQNELVPTFEDRLTSNIPNYREYYPAKQQIEINGISTTKIDELIKAKRI | 1600 ± 300 µM | 7 µmol/min/mg | 15000 ± 2000 µM | 1.4 µmol/min/mg |
